Target: GST-MICAL-L2-ACT (aa 261-1009) (mouse, UniProt Q3TN34 261-1009)
Test: pull-down

GST-MICAL-L2-ACT (aa 261-1009), sequence (Q3TN34 261-1009): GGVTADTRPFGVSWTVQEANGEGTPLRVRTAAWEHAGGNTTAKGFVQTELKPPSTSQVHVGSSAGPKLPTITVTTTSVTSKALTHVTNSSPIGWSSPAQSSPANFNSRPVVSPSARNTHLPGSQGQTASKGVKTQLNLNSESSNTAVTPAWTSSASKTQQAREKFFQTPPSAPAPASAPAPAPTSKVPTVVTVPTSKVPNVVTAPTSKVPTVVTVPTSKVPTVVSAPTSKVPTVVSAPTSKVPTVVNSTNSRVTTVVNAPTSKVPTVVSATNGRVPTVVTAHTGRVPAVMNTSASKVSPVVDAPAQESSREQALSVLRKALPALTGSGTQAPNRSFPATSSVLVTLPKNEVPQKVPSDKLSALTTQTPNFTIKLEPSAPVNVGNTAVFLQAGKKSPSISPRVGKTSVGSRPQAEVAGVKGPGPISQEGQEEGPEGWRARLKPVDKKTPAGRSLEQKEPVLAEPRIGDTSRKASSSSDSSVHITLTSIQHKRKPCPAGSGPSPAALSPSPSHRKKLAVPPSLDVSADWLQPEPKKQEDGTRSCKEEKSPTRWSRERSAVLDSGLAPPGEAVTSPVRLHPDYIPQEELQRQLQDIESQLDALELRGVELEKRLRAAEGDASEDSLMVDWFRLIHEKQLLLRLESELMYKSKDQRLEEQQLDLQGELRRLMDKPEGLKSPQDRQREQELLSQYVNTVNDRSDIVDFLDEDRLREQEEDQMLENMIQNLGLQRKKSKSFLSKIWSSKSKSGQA

B1: GFP-Rab13 (expressed in L6-GLUT4myc muscle cells) (natural protein, UniProt P51153 1-203, looked up)
chain: MAKAYDHLFKLLLIGDSGVGKTCLIIRFAEDNFNNTYISTIGIDFKIRTVDIEGKKIKLQVWDTAGQERFKTITTAYYRGAMGIILVYDITDEKSFENIQNWMKSIKENASAGVERLLLGNKCDMEAKRKVQKEQADKLAREHGIRFFETSAKSSMNVDEAFSSLARDILLKSGGRRSGNGNKPPSTDLKTCDKKNTNKCSLG
fold of pull-down, lysates of insulin-stimulated against basal cells: ~2 fold

From article PMC4694764 (Molecular Biology of the Cell, 2016)
